Assays:
[1] = biological target: GABAA receptor associated protein (GABARAP) (mouse) (UniProt Q9DCD6); experiment: ITC
[2] = biological target: GABAA receptor associated protein (GABARAP) (mouse, UniProt Q9DCD6 1-117); experiment: ITC
Sequence of GABAA receptor associated protein (GABARAP) (Q9DCD6 whole entry): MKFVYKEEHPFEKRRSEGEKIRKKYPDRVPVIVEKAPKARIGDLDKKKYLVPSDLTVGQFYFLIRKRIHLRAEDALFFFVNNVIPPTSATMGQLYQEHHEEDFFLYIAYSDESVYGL

Sequence of GABAA receptor associated protein (GABARAP) (mouse) (Q9DCD6 whole entry): as above

ankyrin-G W1989R (from UniProt O70511 1985-2010) (domain or fragment)
Kd [1]: 11 µM

PEDDWTEFSSEEIREARQAAASHAPS (domain or fragment) [ankyrin-G fragment of 26 amino acids (residues 1985-2010)]
Kd [2]: 0.0029 µM
